Results from patent CN114456267A.

Target: T1, 重组人CD73蛋白 (human) (UniProt P21589)
T1 sequence (looked up): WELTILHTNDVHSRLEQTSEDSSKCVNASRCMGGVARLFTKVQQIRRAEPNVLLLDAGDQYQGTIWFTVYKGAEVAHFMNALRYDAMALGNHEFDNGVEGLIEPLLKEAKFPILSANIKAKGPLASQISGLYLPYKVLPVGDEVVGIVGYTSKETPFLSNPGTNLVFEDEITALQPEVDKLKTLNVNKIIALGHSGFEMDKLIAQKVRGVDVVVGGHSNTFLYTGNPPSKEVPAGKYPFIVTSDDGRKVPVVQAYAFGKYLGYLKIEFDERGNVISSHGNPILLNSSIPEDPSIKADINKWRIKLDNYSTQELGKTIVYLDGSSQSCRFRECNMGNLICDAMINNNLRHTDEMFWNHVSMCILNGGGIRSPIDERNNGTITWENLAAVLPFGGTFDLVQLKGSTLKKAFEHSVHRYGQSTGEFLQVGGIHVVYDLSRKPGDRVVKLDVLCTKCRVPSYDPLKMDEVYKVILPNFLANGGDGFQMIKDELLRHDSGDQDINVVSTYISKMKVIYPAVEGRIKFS
Assay: ELISA, plate coated with 1 μg/mL recombinant human CD73, anti-human IgG-HRP detection

- 亲和力 (affinity): 8.3e-13 mol/L
B1: 抗CD73人源化单克隆抗体5A4 (antibody, part only; not given: Light chain variable region, part only)
VH: SICFEGKPDMNQRDKEDHMRVFMNSWDDWYDVKLWHCIDFERAHRPQHYPIMAQVQLVQSGAEVKKPGASVKVSCKASGYSFTDYNMYWVRQAPGQGLEWMGYIDPYNGDASYAQKFQGRVTMTRDTSTSTVYMELSSLRSEDTAVYYCAKTDYWGQGTTLTVSSCLAKLPCGSHTWVWWQEMIQNAPWCVQPTHDHWAPAGWNHGCCILAHAENIQGAQWFAY
